Results published in patent US20180298083A1.
Positions count from the first letter of the chain named. Where two headings read alike, the source gives them in different places.

B1: VRC01 (antibody, V domains shown)
VH: QVQLVQSGGQMKKPGESMRISCRASGYEFIDCTLNWIRLAPGKRPEWMGWLKPRGGAVNYARPLQGRVTMTRDVYSDTAFLELRSLTVDDTAVYFCTRGKNCDYNWDFEHWGRGTPVIVSS
VL: EIVLTQSPGTLSLSPGETAIISCRTSQYGSLAWYQQRPGQAPRLVIYSGSTRAAGIPDRFSGSRWGPDYNLTISNLESGDFGVYYCQQYEFFGQGTKVQVDIKR
B2: N6 Y54GHC (antibody, V domains shown)
VH: RAHLVQSGTAMKKPGASVRVSCQTSGYTFTAHILFWFRQAPGRGLEWVGWIKPQGGAVNFGGGFRDRVTLTRDVYREIAYMDIRGLKPDDTAVYYCARDRSYGDSSWALDAWGQGTTVVVSA
VL: YIHVTQSPSSLSVSIGDRVTINCQTSQGVGSDLHWYQHKPGRAPKLLIHHTSSVEDGVPSRFSGSGFHTSFNLTISDLQADDIATYYCQVLQFFGRGSRLHIK
B3: N6 VRC27CDRH3 (antibody, V domains shown)
VH: B2 VH with G55Y, S101L, G103D, D104G, A108R, A111P
VL: B2 VL
B4: N6 VRC27FRH3 (antibody, V domains shown)
VH: B2 VH with G55Y, V68I, V74I, I78T, Y80F, M81L, I83L, R84T, K87R, P88F
VL: B2 VL
B5: VRC27 heavy chain with N6 light chain (antibody, V domains shown)
VH: QRLVQSGPQVRKPGSSVRISCETSGYTFNAYILHWFRQAPGRSFEWMGWIKPKFGAVNYAHSFQGRITLTRDIYRETAFLDLTGLRFDDTAVYYCARDRLYDGSSWRLDPWGQGTRVVVSS
VL: B2 VL
B6: N6 VRC27FRH1 (antibody, V domains shown)
VH: SQRLVQSGPQVRKPGSSVRISCETSGYTFNAHILFWFRQAPGRGLEWVGWIKPQYGAVNFGGGFRDRVTLTRDVYREIAYMDIRGLKPDDTAVYYCARDRSYGDSSWALDAWGQGTTVVVSA
VL: B2 VL
B7: N6 VRC27FRH2 (antibody, V domains shown)
VH: B2 VH with G44S, L45F, V48M, G55Y
VL: B2 VL
B8: N6 VRC07CDRH3 (antibody, V domains shown)
VH: RAHLVQSGTAMKKPGASVRVSCQTSGYTFTAHILFWFRQAPGRGLEWVGWIKPQYGAVNFGGGFRDRVTLTRDVYREIAYMDIRGLKPDDTAVYYCARGKYCTARDYYNWALDAWGQGTTVVVSA
VL: B2 VL
B9: N6 VRC08CDRH3 (antibody, V domains shown)
VH: RAHLVQSGTAMKKPGASVRVSCQTSGYTFTAHILFWFRQAPGRGLEWVGWIKPQYGAVNFGGGFRDRVTLTRDVYREIAYMDIRGLKPDDTAVYYCARGRSCCGGRRHCNGADCFNWALDAWGQGTTVVVSA
VL: B2 VL
B10: N6 N17FRH1 (antibody, V domains shown)
VH: B2 VH with M11V, K13R, Q23E, G55Y
VL: B2 VL
B11: N6 VRC27CDRH2 (antibody, V domains shown)
VH: B2 VH with Q54K, G55F, F60Y, G61A, G62H, G63S, R65Q, D66G
VL: B2 VL
B12: N6 GGG60-62ARPHC (antibody, V domains shown)
VH: B2 VH with G55Y, G61A, G62R, G63P
VL: B2 VL
B13: N6 N17FRH3 (antibody, V domains shown)
VH: B2 VH with G55Y, V74I, E77D, I78T, R84S, K87R, P88F
VL: B2 VL

Experiments:
VRC01-resistant viruses [1] = molecular target: VRC01-resistant viruses
6631.V3.C10 (HIV-1) [2] = molecular target: 6631.V3.C10 (HIV-1)
VRC01-resistant viruses [3] = molecular target: VRC01-resistant viruses; remark: listed apart in the source
[4] = molecular target: gp120 of X2088 (HIV-1 strain X2088.c9)
VRC01-resistant viruses [5] = assay: cell-based or functional assay
6631.V3.C10 (HIV-1) [6] = molecular target: 6631.V3.C10 (HIV-1); remark: listed apart in the source
VRC01-resistant viruses [7] = molecular target: VRC01-resistant viruses; remark: listed apart in the source
[8] = molecular target: gp120 of X2088 (HIV-1 strain X2088.c9); remark: listed apart in the source
6631.V3.C10 (HIV-1) [9] = molecular target: 6631.V3.C10 (HIV-1); remark: listed apart in the source
T250-4 (HIV-1) [10] = molecular target: T250-4 (HIV-1)
VRC01-resistant viruses [11] = molecular target: VRC01-resistant viruses; remark: listed apart in the source
[12] = molecular target: gp120 of X2088 (HIV-1 strain X2088.c9); remark: listed apart in the source
T250-4 (HIV-1) [13] = molecular target: T250-4 (HIV-1); remark: listed apart in the source
T250-4 (HIV-1) [14] = molecular target: T250-4 (HIV-1); remark: listed apart in the source

Binder	neutralisation median IC50 (VRC01-resistant viruses [3]) [µg/mL]	fold decrease in neutralization (IC50 of antibody mutant/IC50 of antibody WT) (VRC01-resistant viruses [5]) [fold]	neutralisation IC50 (6631.V3.C10 (HIV-1) [6]) [µg/mL]	neutralisation median IC50 (VRC01-resistant viruses [7]) [µg/mL]	neutralisation IC50 [8] [µg/mL]	other results
B1						neutralisation IC50 (VRC01-resistant viruses [1]): > 50 µg/mL; neutralisation median IC50 (VRC01-resistant viruses [1]): > 50 µg/mL
B2	0.562	32				neutralisation IC50 (6631.V3.C10 (HIV-1) [2]): 0.396 µg/mL; neutralisation IC50 [4]: 0.728 µg/mL
B3		10	0.268	0.167		
B4			0.54	0.525	0.509	
B5						neutralisation IC50 (6631.V3.C10 (HIV-1) [9]): > 50 µg/mL; neutralisation IC50 (T250-4 (HIV-1) [10]): 23.1 µg/mL; neutralisation fold change (IC50 original/IC50 combination) (VRC01-resistant viruses [11]): 1 fold; neutralisation median IC50 (VRC01-resistant viruses [11]): > 50 µg/mL; neutralisation IC50 [12]: > 50 µg/mL
B6			0.561	0.373	0.184	
B7				0.195	0.143	
B8	48.2					neutralisation IC50 (6631.V3.C10 (HIV-1) [2]): > 50 µg/mL; neutralisation IC50 (T250-4 (HIV-1) [13]): > 50 µg/mL
B9	> 50					neutralisation IC50 (T250-4 (HIV-1) [13]): > 50 µg/mL; neutralisation IC50 [4]: 1.4 µg/mL
B10				0.111		neutralisation fold change (IC50 mutant/IC50 WT) (VRC01-resistant viruses [7]): 6 fold; fold decrease in potency (IC50 of antibody mutant/IC50 of antibody WT) (VRC01-resistant viruses [5]): 5 fold
B11		78	1.17	1.37		neutralisation IC50 (T250-4 (HIV-1) [14]): 1.57 µg/mL
B12	0.248	14				neutralisation IC50 [4]: 0.15 µg/mL
B13				0.18	0.106	neutralisation fold change (IC50 mutant/IC50 WT) (VRC01-resistant viruses [7]): 10 fold; fold decrease in potency (IC50 of antibody mutant/IC50 of antibody WT) (VRC01-resistant viruses [5]): 7 fold
